The target of assay [1] is T1, GPC3 (Homo sapiens, UniProt P51654).
T1 construct: from tissue; host or cells: human HCC patient-derived xenograft tumor grown orthotopically in NSG mouse liver
Nature of the assay: Co-localization of labeled multimer and anti-GPC3 antibody on resected human HCC PDX tumor specimen. To be noted: merged image. The assay is classed as binding. The text has this: (§1) After completion of in vivo imaging, specific multimer binding to the PDX HCC tumor was validated ex vivo using confocal microscopy. These studies confirmed the in vivo imaging results and expression of the expected targets ex vivo. Increased fluorescence intensity is seen at the cell surface (arrow) for the IRDye800-labeled multimer binding to HCC tumor, FIG. 8A. Adjacent sections were stained with antibodies specific for GPC3, CD44, and EpCAM, FIG. 8B-D. Co-localization of multimer and antibody binding is shown on the merged image, FIG. 8E. A correlation of ρ=0.69, 0.65, and 0.70 was measured to characterize binding co-localization by the multimer with the GPC3, CD44, and EpCAM antibodies, respectively.
(§2) Orthotopic HCC PDX tumors were resected and sectioned for immunofluorescence.

Assay [2] concerns the target T1, GPC3. Briefly: Co-localization of labeled multimer and anti-GPC3 antibody binding to HCC patient-derived organoids (PDOs). The note with it: merged images. Here is the method: (§3) PDOs were established from human HCC specimens. These immortalized human tissues provided clinically relevant target expression levels and genetic heterogeneity seen in the HCC patient population. Short tandem repeat analysis was performed to authenticate human genomic expression and characterize genetic variations. Images collected using the candidate IRDye800-labeled multimer, AF488-labeled monoclonal antibodies specific for GPC3, CD44, and EpCAM, and merged are shown, FIG. 2A-C. Strong fluorescence intensity can be seen at the cell surface (arrows). Multimer and antibody co-localization was measured using correlation analysis.
(§4) For a co-localization assay, patient-derived organoids were recovered from Matrigel and fixed by 4% PFA for 30 min. Permeabilization and blocking were performed using 5% serum (v/v) and 1% Triton X-100 (v/v) in PBS for 3 hours at room temperature. Organoids were then incubated with 1:200 dilution of primary recombinant rabbit anti-GPC3 antibody (#ab95363, Abcam), 1:500 dilution of primary recombinant mouse anti-CD44 antibody (#3570, Cell Signaling Technology), and AF594-labeled primary anti-EpCAM (#7319, Cell Signaling Technology) at 4° C. overnight. […] Confocal fluorescence images were obtained on Leica Stellaris 5 (inverted) confocal microscope using a 63X oil-immersion objective. Fluorescence intensities were quantified using Leica LAS AF Lite software.

Assay [3] deals with T2, EpCAM (Homo sapiens, UniProt P16422).
T2 construct: from tissue; host or cells: human HCC patient-derived xenograft tumor grown orthotopically in NSG mouse liver
T2 sequence (P16422 24-314): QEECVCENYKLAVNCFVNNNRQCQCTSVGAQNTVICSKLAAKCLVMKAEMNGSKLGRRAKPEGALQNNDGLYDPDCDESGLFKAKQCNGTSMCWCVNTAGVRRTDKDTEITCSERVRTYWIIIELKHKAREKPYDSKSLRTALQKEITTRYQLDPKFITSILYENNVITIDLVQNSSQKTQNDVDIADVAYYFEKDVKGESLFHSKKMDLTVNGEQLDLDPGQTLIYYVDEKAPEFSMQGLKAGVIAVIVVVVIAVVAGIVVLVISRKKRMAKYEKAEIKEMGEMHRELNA
Nature of the assay: Co-localization of labeled multimer and anti-EpCAM antibody binding to HCC patient-derived organoids (PDOs). The note with it: merged images. Here is the method:
as §3, §4

The target in assay [4] is T2, EpCAM. Briefly: Co-localization of labeled multimer and anti-EpCAM antibody on resected human HCC PDX tumor specimen. The class given is binding. To be noted: merged image.
Excerpt: as §1, §2

The test system of assay [5] is CD44. Briefly: Co-localization of labeled multimer and anti-CD44 antibody binding to HCC patient-derived organoids (PDOs). Set-up: species or system human. The note with it: merged images. Here is the method:
as §3, §4

Assay [6] has as its target T3, CD44 (Homo sapiens, UniProt P16070).
T3 construct: from tissue; host or cells: human HCC patient-derived xenograft tumor grown orthotopically in NSG mouse liver
Briefly: Co-localization of labeled multimer and anti-CD44 antibody on resected human HCC PDX tumor specimen. The class given is binding. The note with it: merged image.
Excerpt: as §1, §2

The test system of a further assay is human CCA-156 HCC cells. Nature of the assay: Binding of Cy5.5-labeled peptides to CCA-156 HCC cells, confocal fluorescence. The assay is classed as cell-based. The note with it: 5 μM, 5 min on ice. Here is the method: HCC patient-derived cells (CCA-156) were generated from fresh, de novo tumor specimens obtained from patients undergoing liver transplant.
Fresh tissue was cut into ~1 mm^2 pieces in ice-cold DPBS. and 3-4 pieces were placed in one well of a 12-well plate. Minced tissue was cultured using Matrigel with growth media containing 10 μM ROCK inhibitor Y27632 (ATCC) and 5 μM TGF-β inhibitor (A83-01, Sigma-Aldrich) diluted to 8 mg/mL. An HCC cell line and a corresponding organoid were successfully generated. The cell line was denoted CCA-156 to reflect the specimen ID.
Approximately 10^3 CCA-156 cells were grown on the cover glass in a 24-well plate to ~90% confluence. The cells were washed with PBS twice and incubated with 5 μM of either Cy5.5-labeled peptide multimer or peptide monomer for 5 min on ice. The cells were then washed with PBS for 3X, fixed with 4% paraformaldehyde (PFA) in PBS for 15 min, washed with PBS for twice, then mounted on glass slides with ProLong Gold reagent containing DAPI (Invitrogen).

Assay [7] has as its system orthotopic HCC PDX tumors. Briefly: In vivo competition for binding (blocking before Gd-DOTA-labeled peptide multimer), MR imaging. Further details: species or system mouse. To be noted: unlabeled blocker given prior to labeled multimer; 0.5 hour post-injection. Here is the method:
In vivo competition for binding to GPC3, CD44, and EpCAM was evaluated by administering unlabeled peptide monomers prior to Gd-DOTA labeled peptide multimer. Single unlabeled peptide monomers (ALL*, WKG*, and HPD*) at a concentration of 1.5 mM in 100 μL of PBS, or a mixture of all three peptide monomers (multi-block) at a concentration of 1 mM in 100 μL of PBS each were administered 30 minutes prior to the Gd-DOTA-labeled peptide multimer, FIG. 14A. T1-weighted MR images were collected at the peak uptake time of 0.5 hour after the peptide multimer injection. The T/B ratio of MR intensity was calculated using regions of interest, and the adjacent non-tumor region with equal area of the tumor region was defined as the background.

In assay [8] the target is T3, CD44. Nature of the assay: Co-localization of multimer and anti-CD44-AF488 on human liver tissue microarray. The assay is classed as binding. Here is the method: (§5) Binding of Cy5.5-labeled peptide multimer was evaluated using human HCC specimens ex vivo. All experiments using human tissues were approved by the Michigan Medicine IRB (HUM00122873). A tissue microarray (TMA) was generated from n=120 liver specimens provided by the archived tissue bank in the Department of Pathology. Paraffin-embedded (FFPE) section slide was deparaffinized and conducted through antigen retrieval. Blocking procedure was performed with 5% goat serum for 1 hour at room temperature. The slide was first stained with the Cy5.5 labeled peptide multimer at 5 μM for 5 min at room temperature. The section was then incubated with primary antibodies using 1:200 dilution of primary recombinant rabbit anti-GPC3 antibody (#ab95363, Abcam), 1:500 dilution of primary recombinant mouse anti-CD44 antibody (#3570, Cell Signaling Technology), and AF594-labeled primary anti-EpCAM (#7319, Cell Signaling Technology) overnight at 4° C. After washing with 2% BSA in PBST, section was incubated with 1:500 dilution of AF488-labeled secondary goat anti-mouse IgG antibody (#ab150113, Abcam) and 1:500 dilution of AF532-labeled secondary goat anti-rabbit IgG antibody (#A-11029, Life Technologies) for 1 hour at room temperature, and mounted with Prolong Gold reagent containing DAPI at last (Invitrogen). The fluorescence images were collected using Leica Stellaris 5 (inverted), excitation at Aex=670 nm for the peptide multimer, and λex=488, 532, 594 nm for CD44, GPC3 and EpCAM antibody, respectively. Fluorescence intensities were quantified using Leica LAS AF Lite software. All slides were evaluated by an expert liver pathologist.

The subject of another assay is human liver specimens. Nature of the assay: Multimer staining of human liver specimens ex vivo (tissue microarray), fluorescence intensity and ROC. Here is the method: as §5
For assay [9], the target named is T1, GPC3. Briefly: Co-localization of multimer and anti-GPC3-AF532 on human liver tissue microarray. The assay is classed as binding. Here is the method:
as §5

The target of assay [10] is T2, EpCAM. Nature of the assay: Co-localization of multimer and anti-EpCAM-AF594 on human liver tissue microarray. The class given is binding. Here is the method: as §5

Entries after “also recorded” stand apart in the source; their conditions may differ. No end group written: not given here.

T1 sequence (P51654 25-554): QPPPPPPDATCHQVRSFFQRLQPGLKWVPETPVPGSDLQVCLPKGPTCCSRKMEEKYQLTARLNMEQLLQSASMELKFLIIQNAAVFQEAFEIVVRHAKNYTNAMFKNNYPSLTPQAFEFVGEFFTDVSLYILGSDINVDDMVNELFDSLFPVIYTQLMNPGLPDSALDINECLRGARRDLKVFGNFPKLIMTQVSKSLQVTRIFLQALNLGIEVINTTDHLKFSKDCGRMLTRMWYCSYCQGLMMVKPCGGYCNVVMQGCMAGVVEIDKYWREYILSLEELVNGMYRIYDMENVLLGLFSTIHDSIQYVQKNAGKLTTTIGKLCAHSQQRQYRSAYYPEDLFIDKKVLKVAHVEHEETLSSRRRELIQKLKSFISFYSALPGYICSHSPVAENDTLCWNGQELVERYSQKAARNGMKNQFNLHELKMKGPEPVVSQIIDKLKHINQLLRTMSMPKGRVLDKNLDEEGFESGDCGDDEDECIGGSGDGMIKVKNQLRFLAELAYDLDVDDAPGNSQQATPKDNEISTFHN
T3 sequence (P16070 21-742): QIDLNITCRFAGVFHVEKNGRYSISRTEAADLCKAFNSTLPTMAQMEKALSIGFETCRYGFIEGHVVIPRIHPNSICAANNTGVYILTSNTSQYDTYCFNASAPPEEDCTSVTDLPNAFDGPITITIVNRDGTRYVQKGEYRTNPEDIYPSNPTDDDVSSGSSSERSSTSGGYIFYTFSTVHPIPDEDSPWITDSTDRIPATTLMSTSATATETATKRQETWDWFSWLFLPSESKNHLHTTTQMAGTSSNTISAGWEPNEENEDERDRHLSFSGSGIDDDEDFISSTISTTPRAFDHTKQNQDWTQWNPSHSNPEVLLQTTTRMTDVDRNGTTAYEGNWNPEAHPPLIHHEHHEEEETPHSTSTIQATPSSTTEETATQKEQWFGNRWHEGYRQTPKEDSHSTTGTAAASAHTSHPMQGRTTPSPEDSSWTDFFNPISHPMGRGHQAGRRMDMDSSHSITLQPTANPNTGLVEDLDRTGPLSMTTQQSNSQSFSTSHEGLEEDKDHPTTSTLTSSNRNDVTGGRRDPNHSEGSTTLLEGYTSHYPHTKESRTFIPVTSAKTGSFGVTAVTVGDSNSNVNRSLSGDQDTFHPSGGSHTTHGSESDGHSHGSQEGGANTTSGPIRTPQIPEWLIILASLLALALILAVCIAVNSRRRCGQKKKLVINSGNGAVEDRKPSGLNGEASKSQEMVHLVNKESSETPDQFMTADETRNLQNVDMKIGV
T3 sequence (P16070 21-222 limits assumed): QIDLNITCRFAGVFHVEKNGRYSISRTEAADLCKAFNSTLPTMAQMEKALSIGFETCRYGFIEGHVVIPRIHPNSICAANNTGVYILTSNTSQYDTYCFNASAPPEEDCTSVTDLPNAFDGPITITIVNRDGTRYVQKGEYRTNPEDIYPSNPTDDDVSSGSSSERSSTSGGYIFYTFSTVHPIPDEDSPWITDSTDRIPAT

Regarding “IRDye800-labeled multimer: GPC3-, CD44- and EpCAM-specific peptide monomers arranged via tri-lysine linker and PEG3 linkers, labeled with IRDye800 (peptide 1 ALLANHEELFQT; peptide 2 WKGWSYLWTQQA; peptide 3 HPDMFTRTHSHN; not fully specified; also: monomers arranged via tri-lysine linker and PEG3 linkers, IRDye800 label, site not given here)”, in the assay with GPC3 [1], the “Pearson's correlation coefficient, multimer with GPC3 antibody” value is listed as 0.69. In the assay with GPC3 [2], the “correlation of co-localization, multimer and GPC3 antibody” value is reported as 0.74. Further, the “correlation of co-localization, multimer and EpCAM antibody” value with EpCAM [3] is recorded as 0.75. Besides, the “Pearson's correlation coefficient, multimer with EpCAM antibody” value in the assay with EpCAM [4] was 0.70. In the assay with CD44 [5], the “correlation of co-localization, multimer and CD44 antibody” value came to 0.80. In addition, the “Pearson's correlation coefficient, multimer with CD44 antibody” value with CD44 [6] worked out at 0.65.

As to “HPD*-Cy5.5: Cy5.5-labeled EpCAM-specific peptide monomer HPDMFTRTHSHN (SEQ ID NO: 7) (also: Cy5.5 label, site not given here)”, the “binding to cell surface of CCA-156 cells (fluorescence)” value (“binding to cell surface” below) with human CCA-156 HCC cells was “minimal signal”.

Take “WKGWSYLWTQQA (CD44-specific peptide) [WKG*]”: in [7], the “T/B ratio of Gd-DOTA-labeled peptide multimer after blocking” value (from here on “T/B ratio”) is on record as “reduced”.

Regarding “ALL*-Cy5.5: Cy5.5-labeled GPC3-specific peptide monomer ALLANHEELFQT (SEQ ID NO: 1) (also: Cy5.5 label, site not given here)”, the “binding to cell surface” value in the assay on human CCA-156 HCC cells is on record as “minimal signal”.

Consider “ALLANHEELFQT (GPC3-specific peptide) [ALL*]”, for which the “T/B ratio” value in [7] is reported as “reduced”.

As for “WKG*-Cy5.5: Cy5.5-labeled CD44-specific peptide monomer WKGWSYLWTQQA (SEQ ID NO: 6) (also: Cy5.5 label, site not given here)”, the “binding to cell surface” value in the assay with human CCA-156 HCC cells is given as “minimal signal”.

Regarding “Cy5.5-labeled peptide multimer: peptide multimer of GPC3-, CD44- and EpCAM-specific peptides labeled with Cy5.5 (peptide 1 ALLANHEELFQT; peptide 2 WKGWSYLWTQQA; peptide 3 HPDMFTRTHSHN; not fully specified; also: peptide multimer, linkage not given here, Cy5.5 label, site not given here)”, the “Pearson's correlation coefficient, multimer with GPC3 antibody” value with GPC3 [1] worked out at 0.69. In addition, the “Pearson's correlation coefficient, multimer and CD44 antibody” value with CD44 [8] (HCC) was 0.70; with CD44 [8] (adenoma) it was 0.74; with CD44 [8] (cirrhosis), 0.60; in the assay with CD44 [8] (normal liver), 0.69. In addition, in the assay with GPC3 [2], the “correlation of co-localization, multimer and GPC3 antibody” value is 0.74. Further, in the assay with EpCAM [3], the “correlation of co-localization, multimer and EpCAM antibody” value worked out at 0.75. Moreover, in the assay with human CCA-156 HCC cells, the “binding to cell surface” value is “Strong fluorescence signal; also recorded: strong binding”. Also, the “quantified fluorescence intensity, mean±SD” value is on record as 8.4±1.0 in the assay on human liver specimens (HCC), 5.8±0.4 with human liver specimens (adenoma), 6.4+0.7 with human liver specimens (cirrhosis) and 6.4±0.4 with human liver specimens (normal). Moreover, the “fluorescence intensity for HCC versus cirrhosis, adenoma, and normal” value with human liver specimens (n=120 specimens) is “significantly greater”. The “Pearson's correlation coefficient, multimer with EpCAM antibody” value with EpCAM [4] was found to be 0.70. The “correlation of co-localization, multimer and CD44 antibody” value with CD44 [5] is reported as 0.80. The “Pearson's correlation coefficient, multimer and GPC3 antibody” value was 0.76 with GPC3 [9] (HCC), 0.82 in the assay with GPC3 [9] (adenoma), 0.69 with GPC3 [9] (cirrhosis) and 0.74 in the assay with GPC3 [9] (normal liver). The “Pearson's correlation coefficient, multimer and EpCAM antibody” value with EpCAM [10] (HCC) was 0.81; in the assay with EpCAM [10] (adenoma), 0.83; in the assay with EpCAM [10] (cirrhosis), 0.66; in the assay with EpCAM [10] (normal liver), 0.83. Besides, the “Pearson's correlation coefficient, multimer with CD44 antibody” value with CD44 [6] amounted to 0.65.

In the case of “HPDMFTRTHSHN (EpCAM-specific peptide) [HPD*]”, the “T/B ratio” value in assay [7] is reported as “reduced”.

These data come from patent publication US20260248969A1, “PEPTIDE MULTIMER PRODUCTS AND METHODS” (REGENTS OF THE UNIVERSITY OF MICHIGAN, priority 2023, published 2026).
